Laboratory results: patent US20070180544A1

Tests used:
[1] = molecular target: extracellular domain of rat neurexin-1-β (rat-NX1β-1), residues 48-300 (rat) (UniProt Q63373); assay: SPR, β-neurexin immobilised; 111 nM
[2] = molecular target: extracellular domain of rat neurexin-1-β (rat-NX1β-1), residues 48-300 (rat) (UniProt Q63373); assay: SPR, NX1β immobilised; one value told for the four proteins
[3] = molecular target: extracellular domain of rat neurexin-1-β (rat-NX1β-1), residues 48-300 (rat) (UniProt Q63373); assay: SPR, β-neurexin immobilised; 3 µM
[4] = molecular target: extracellular domain of rat neurexin-1-β (rat-NX1β-1), residues 48-300 (rat) (UniProt Q63373); assay: SPR, NX1β immobilised
[5] = molecular target: extracellular domain of rat neurexin-1-β (rat-NX1β-1), residues 48-300 (rat) (UniProt Q63373); assay: SPR (BIAcore), NX1β immobilised
[6] = molecular target: extracellular domain of rat neurexin-1-β (rat-NX1β-1), residues 48-300 (rat) (UniProt Q63373); assay: SPR (BIAcore), NX1β immobilised; from ka and kd
[7] = molecular target: extracellular domain of rat neurexin-1-β (rat-NX1β-1), residues 48-300 (rat) (UniProt Q63373); assay: SPR (BIAcore), NX1β immobilised, NL1 62.5-2000 nM
[8] = molecular target: extracellular domain of rat neurexin-1-β (rat-NX1β-1), residues 48-300 (rat) (UniProt Q63373); assay: SPR, NX1β immobilised; treated against native protein
[9] = molecular target: extracellular domain of rat neurexin-1-β (rat-NX1β-1), residues 48-300 (rat) (UniProt Q63373); assay: SPR, NX1β immobilised; deglycosylated against native protein
[10] = molecular target: extracellular domain of rat neurexin-1-β (rat-NX1β-1), residues 48-300 (rat) (UniProt Q63373); assay: SPR, NX1β immobilised; sialidase II treated against native protein
[11] = molecular target: extracellular domain of rat neurexin-1-β (rat-NX1β-1), residues 48-300 (rat) (UniProt Q63373); assay: SPR, NX1β immobilised; treated against native protein, 500 nM

Molecule: R473T-NL1-691 (from UniProt Q62765 46-691) (receptor)
- fold less total binding than wild type [1]: 3 fold

Molecule: S549A-NL1-638 (from UniProt Q62765 46-638) (receptor)
- increase of NX1β binding activity after PNGase F digestion [2]: 229%

Molecule: R471C-NL3-639 (from UniProt Q62889 35-639) (receptor)
- fold less β-neurexin binding than wild type [3]: 50 fold

Molecule: N303A-NL1-638 (from UniProt Q62765 46-638) (receptor)
- increase of NX1β binding activity after PNGase F digestion [4]: 17%

Molecule: T111A-NL1-638 (from UniProt Q62765 46-638) (receptor)
- increase of NX1β binding activity after PNGase F digestion [2]: 229%

Molecule: soluble truncated NL1 (recombinant, soluble entity; truncation not specified) (from UniProt Q62765 46-691) (receptor)
- koff [5]: 0.015 s⁻¹
- kon [5]: 50000 M⁻¹ s⁻¹
- Kd [6]: 300 nM

Molecule: N343A-NL1-638 (from UniProt Q62765 46-638) (receptor)
- increase of NX1β binding activity after PNGase F digestion [2]: 229%

B1: NL1-651 (soluble rat neuroligin-1 truncated by a stop codon at Thr-652, N-terminal FLAG) (receptor)
chain: DYKDDDDKLAAANSSIDLQKLDDVDPLVTTNFGKIRGIKKELNNEILGPVIQFLGVPYAAPPTGEHRFQPPEPPSPWSDIRNATQFAPVCPQNIIDGRLPEVMLPVWFTNNLDVVSSYVQDQSEDCLYLNIYVPTEDVKRISKECARKPGKKICRKGDIRDSGGPKPVMVYIHGGSYMEGTGNLYDGSVLASYGNVIVITVNYRLGVLGFLSTGDQAAKGNYGLLDLIQALRWTSENIGFFGGDPLRITVFGSGAGGSCVNLLTLSHYSEGNRWSNSTKGLFQRAIAQSGTALSSWAVSFQPAKYARILATKVGCNVSDTVELVECLQKKPYKELVDQDVQPARYHIAFGPVIDGDVIPDDPQILMEQGEFLNYDIMLGVNQGEGLKFVENIVDSDDGVSASDFDFAVSNFVDNLYGYPEGKDVLRETIKFMYTDWADRHNPETRRKTLLALFTDHQWVAPAVATADLHSNFGSPTYFYAFYHHCQTDQVPAWADAAHGDEVPYVLGIPMIGPTELFPCNFSKNDVMLSAVVMTYWTNFAKTGDPNQPVPQDTKFIHTKPNRFEEVAWTRYSQKDQLYLHIGLKPRVKEHYRANKVNLWLELVPHLHNLNDISQYTSTTTKVPS
- fold binding over NL1-691 [7]: 2.5 fold

B2: NL1-691 (soluble rat neuroligin-1 truncated by a stop codon at Tyr-692, N-terminal FLAG) (receptor)
chain: DYKDDDDKLAAANSSIDLQKLDDVDPLVTTNFGKIRGIKKELNNEILGPVIQFLGVPYAAPPTGEHRFQPPEPPSPWSDIRNATQFAPVCPQNIIDGRLPEVMLPVWFTNNLDVVSSYVQDQSEDCLYLNIYVPTEDVKRISKECARKPGKKICRKGDIRDSGGPKPVMVYIHGGSYMEGTGNLYDGSVLASYGNVIVITVNYRLGVLGFLSTGDQAAKGNYGLLDLIQALRWTSENIGFFGGDPLRITVFGSGAGGSCVNLLTLSHYSEGNRWSNSTKGLFQRAIAQSGTALSSWAVSFQPAKYARILATKVGCNVSDTVELVECLQKKPYKELVDQDVQPARYHIAFGPVIDGDVIPDDPQILMEQGEFLNYDIMLGVNQGEGLKFVENIVDSDDGVSASDFDFAVSNFVDNLYGYPEGKDVLRETIKFMYTDWADRHNPETRRKTLLALFTDHQWVAPAVATADLHSNFGSPTYFYAFYHHCQTDQVPAWADAAHGDEVPYVLGIPMIGPTELFPCNFSKNDVMLSAVVMTYWTNFAKTGDPNQPVPQDTKFIHTKPNRFEEVAWTRYSQKDQLYLHIGLKPRVKEHYRANKVNLWLELVPHLHNLNDISQYTSTTTKVPSTDITLRPTRKNSTPVTSAFPTAKQDDPKQQPSPFSVDQRD
- fold increase in binding after combined sialidase II and PNGase F treatment [8]: 5 fold
- fold increase in binding after PNGase F treatment [9]: 3 fold
- fold increase in binding after sialidase-II treatment [10]: 2 to 2.5 fold

B3: NL1-638 (soluble rat neuroligin-1 truncated by a stop codon at Ile-639, N-terminal FLAG) (receptor)
chain: DYKDDDDKLAAANSSIDLQKLDDVDPLVTTNFGKIRGIKKELNNEILGPVIQFLGVPYAAPPTGEHRFQPPEPPSPWSDIRNATQFAPVCPQNIIDGRLPEVMLPVWFTNNLDVVSSYVQDQSEDCLYLNIYVPTEDVKRISKECARKPGKKICRKGDIRDSGGPKPVMVYIHGGSYMEGTGNLYDGSVLASYGNVIVITVNYRLGVLGFLSTGDQAAKGNYGLLDLIQALRWTSENIGFFGGDPLRITVFGSGAGGSCVNLLTLSHYSEGNRWSNSTKGLFQRAIAQSGTALSSWAVSFQPAKYARILATKVGCNVSDTVELVECLQKKPYKELVDQDVQPARYHIAFGPVIDGDVIPDDPQILMEQGEFLNYDIMLGVNQGEGLKFVENIVDSDDGVSASDFDFAVSNFVDNLYGYPEGKDVLRETIKFMYTDWADRHNPETRRKTLLALFTDHQWVAPAVATADLHSNFGSPTYFYAFYHHCQTDQVPAWADAAHGDEVPYVLGIPMIGPTELFPCNFSKNDVMLSAVVMTYWTNFAKTGDPNQPVPQDTKFIHTKPNRFEEVAWTRYSQKDQLYLHIGLKPRVKEHYRANKVNLWLELVPHLHNLND
- fold increase in binding after combined sialidase II and PNGase F treatment [11]: 5 fold
- increase of NX1β binding activity after PNGase F digestion [2]: 229%
- fold increase in binding after PNGase F treatment [9]: 3 fold
- fold binding over NL1-691 [7]: 2.5 fold
- fold increase in binding after sialidase-II treatment [10]: 2 to 2.5 fold
